From article PMC9321536 come the findings set out here.

Data set [1] can be described thus: confocal IF, colocalisation with calnexin, HEK 293T. The settings on record: glycan lost; control: wild type.
Data set [2] can be described thus: surface FLAG IF, nonpermeabilized HEK 293T, cadherin marker. The settings on record: glycan lost; control: wild type.

B1: SUCNR1/GPR91 (succinate receptor): N8A (protein)
parent chain: MLGIMAWNATCKNWLAAEAALEKYYLSIFYGIEFVVGVLGNTIVVYGYIFSLKNWNSSNIYLFNLSVSDLAFLCTLPMLIRSYANGNWIYGDVLCISNRYVLHANLYTSILFLTFISIDRYLIIKYPFREHLLQKKEFAILISLAIWVLVTLELLPILPLINPVITDNGTTCNDFASSGDPNYNLIYSMCLTLLGFLIPLFVMCFFYYKIALFLKQRNRQVATALPLEKPLNLVIMAVVIFSVLFTPYHVMRNVRIASRLGSWKQYQCTQVVINSFYIVTRPLAFLNSVINPVFYFLLGDHFRDMLMNQLRHNFKSLTSFSRWAHELLLSFREK
Regarding B1, the results for the localisation_or_trafficking result in data set [1] and in data set [2] were “changes” and “increases”, respectively.

B2: SUCNR1/GPR91 (succinate receptor): N168A (protein)
parent chain: B1 parent chain
As for B2, the localisation_or_trafficking result in data set [1] and in data set [2] was “no change” throughout.
